The supplement of paper PMC11136658

Tested on: peptide library, one residue held at a place counted from the Y acceptor
Assay: relative phosphorylation of the sub-library (ratio to the mean residue at this position); higher = residue favoured
In short: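 Biotinylated Tyr-centred peptide library mixtures, each fixing one residue at one position from −5 to +5, were incubated with purified recombinant kinases in 384-well plates for 90 min with 50 μM ATP plus γ-32P-ATP. Streptavidin membranes captured the peptides, which were rinsed and quantified by phosphorimaging and ImageQuant. At each position, intensities were divided by the sum of the 18 randomized residues (16 for the Ser/Thr-free library) and multiplied by that number. Each value is phosphorylation relative to the mean randomized residue.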

EPHB4, construct: aa561-end, human, sequence (P54760 561-987, looked up): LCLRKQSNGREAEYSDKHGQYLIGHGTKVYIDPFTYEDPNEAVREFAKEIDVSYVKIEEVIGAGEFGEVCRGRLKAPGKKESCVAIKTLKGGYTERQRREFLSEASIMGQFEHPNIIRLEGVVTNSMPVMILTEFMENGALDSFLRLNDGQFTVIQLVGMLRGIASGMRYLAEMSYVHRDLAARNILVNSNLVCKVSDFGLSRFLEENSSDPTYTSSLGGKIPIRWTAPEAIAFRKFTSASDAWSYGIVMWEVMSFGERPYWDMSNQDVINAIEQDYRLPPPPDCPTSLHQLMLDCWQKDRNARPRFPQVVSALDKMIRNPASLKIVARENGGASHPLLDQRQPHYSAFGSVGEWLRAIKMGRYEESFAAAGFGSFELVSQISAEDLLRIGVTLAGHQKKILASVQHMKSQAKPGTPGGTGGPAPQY
FES, construct: Full length, human, sequence (P07332 whole entry, looked up): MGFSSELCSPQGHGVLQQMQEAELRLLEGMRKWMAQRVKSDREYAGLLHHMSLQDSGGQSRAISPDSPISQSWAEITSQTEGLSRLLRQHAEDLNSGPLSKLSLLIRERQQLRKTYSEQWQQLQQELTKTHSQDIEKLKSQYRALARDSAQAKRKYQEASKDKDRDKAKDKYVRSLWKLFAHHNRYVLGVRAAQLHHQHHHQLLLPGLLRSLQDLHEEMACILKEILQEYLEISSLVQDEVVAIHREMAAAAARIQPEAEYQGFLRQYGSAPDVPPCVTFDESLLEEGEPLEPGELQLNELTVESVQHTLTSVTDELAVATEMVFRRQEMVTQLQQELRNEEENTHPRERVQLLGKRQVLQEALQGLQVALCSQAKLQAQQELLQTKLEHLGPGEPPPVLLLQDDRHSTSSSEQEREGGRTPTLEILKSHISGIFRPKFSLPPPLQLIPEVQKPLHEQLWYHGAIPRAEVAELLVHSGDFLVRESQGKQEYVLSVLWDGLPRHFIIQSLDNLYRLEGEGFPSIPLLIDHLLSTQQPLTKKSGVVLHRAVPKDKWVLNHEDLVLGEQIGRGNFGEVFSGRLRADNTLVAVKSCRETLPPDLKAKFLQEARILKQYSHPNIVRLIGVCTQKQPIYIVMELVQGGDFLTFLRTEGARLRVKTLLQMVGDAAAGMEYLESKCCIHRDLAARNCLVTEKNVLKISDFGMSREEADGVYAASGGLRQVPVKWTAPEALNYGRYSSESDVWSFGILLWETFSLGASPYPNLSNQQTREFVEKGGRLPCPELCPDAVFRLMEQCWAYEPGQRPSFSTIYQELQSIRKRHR
FER, construct: aa-541-end, human, sequence (P16591 whole entry, looked up): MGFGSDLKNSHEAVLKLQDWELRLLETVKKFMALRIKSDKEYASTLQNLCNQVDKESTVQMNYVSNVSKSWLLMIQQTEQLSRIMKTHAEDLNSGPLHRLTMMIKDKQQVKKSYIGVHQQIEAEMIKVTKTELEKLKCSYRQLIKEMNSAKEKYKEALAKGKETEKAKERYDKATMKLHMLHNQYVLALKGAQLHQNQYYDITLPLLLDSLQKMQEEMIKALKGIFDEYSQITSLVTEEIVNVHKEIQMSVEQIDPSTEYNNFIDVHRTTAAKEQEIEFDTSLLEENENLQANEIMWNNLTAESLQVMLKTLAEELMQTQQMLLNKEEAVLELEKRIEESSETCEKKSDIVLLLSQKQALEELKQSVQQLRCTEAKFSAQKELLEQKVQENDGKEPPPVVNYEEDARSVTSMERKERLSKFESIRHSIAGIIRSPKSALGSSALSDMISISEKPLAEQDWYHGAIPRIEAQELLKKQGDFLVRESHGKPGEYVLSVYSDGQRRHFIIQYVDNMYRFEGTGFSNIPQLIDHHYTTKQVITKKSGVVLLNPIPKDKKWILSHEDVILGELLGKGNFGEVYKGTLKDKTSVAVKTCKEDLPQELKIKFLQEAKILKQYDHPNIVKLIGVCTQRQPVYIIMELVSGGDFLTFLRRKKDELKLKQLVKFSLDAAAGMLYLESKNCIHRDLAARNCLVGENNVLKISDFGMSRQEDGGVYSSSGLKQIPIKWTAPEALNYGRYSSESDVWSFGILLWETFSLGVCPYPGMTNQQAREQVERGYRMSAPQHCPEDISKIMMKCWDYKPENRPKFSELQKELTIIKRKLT

EPHB4, construct: aa561-end, human (from UniProt P54760)
relative phosphorylation
Details	at +1	at +2	at +3	at +4	at +5	at -1	at -2	at -3	at -4	at -5
A fixed	2.01	0.93	0.981	0.836	0.988	0.59	1.26	0.954	1.17	1.05
D fixed	0.98	0.854	0.481	0.969	1.18	2.38	1.15	1.32	1.09	1.12
E fixed	2.09	1.19	0.409	1	0.934	1.38	1.07	1.52	1.14	0.945
F fixed	0.651	1.15	1.06	1.01	0.879	0.933	0.628	1.16	0.904	0.895
G fixed	1.03	0.54	0.694	1.16	1.22	0.36	1.17	0.986	1.39	1.38
H fixed	0.482	0.782	1.08	1.16	0.89	0.577	0.911	0.93	0.941	0.998
I fixed	1.02	1.19	1.47	0.663	0.675	1.91	0.772	0.996	0.965	0.775
K fixed	0.404	0.755	0.464	0.907	0.959	0.357	0.99	0.674	0.953	1.05
L fixed	0.774	0.955	1.49	0.792	0.77	1.77	0.834	0.82	0.797	0.838
M fixed	1.36	0.914	1.25	0.969	0.934	0.806	0.722	0.8	0.962	0.949
N fixed	0.489	1.05	0.698	0.947	1.03	2.07	1	1.13	0.889	1.03
P fixed	0.319	0.821	1.46	1.29	1.45	0.513	1.6	1.21	1.35	1.27
Q fixed	1.35	1.03	0.884	1.04	1.02	0.501	1.13	0.863	1.12	0.907
R fixed	0.455	1.08	0.624	1.14	1.13	0.389	1	0.871	0.989	1.17
S fixed	1.05	0.937	0.945	0.974	1.18	0.572	1.57	1	0.915	0.953
T fixed	0.833	1.1	0.832	0.984	1.05	1.08	0.863	0.843	0.696	0.905
V fixed	1.75	1.37	1.73	0.792	0.716	1.04	0.758	0.825	0.874	0.8
W fixed	0.957	1.36	1.45	1.36	0.991	0.773	0.567	1.1	0.859	0.97
pThr fixed	1.45	1.7	0.467	0.855	0.682	1.61	0.917	0.96	0.855	0.898
pTyr fixed	1.36	3.59	0.719	0.965	1.04	2.25	0.931	1.17	1.08	1.11

ERBB2, construct: aa676-end, human (from UniProt P04626)
relative phosphorylation
Details	at +1	at +2	at +3	at +4	at +5	at -1	at -2	at -3	at -4	at -5
A fixed	0.734	0.684	0.603	0.869	1.51	0.72	0.953	0.764	0.972	0.899
D fixed	0.56	1.04	0.571	0.774	0.521	1.88	1.26	1.48	1.19	1.04
E fixed	0.87	1.19	0.493	0.79	0.575	1.91	1.58	1.88	1.41	0.983
F fixed	1.73	1.58	2.19	1.09	0.958	1.12	0.99	1.27	1.02	1.06
G fixed	0.526	0.504	0.621	0.943	1.06	0.567	1.15	1	1.2	1.12
H fixed	1.18	0.884	0.867	1.02	1.61	0.846	0.936	0.855	0.872	1.04
I fixed	1.5	0.984	1.86	0.764	0.878	1.62	0.932	0.726	0.985	0.909
K fixed	0.462	0.78	0.474	0.991	0.87	0.476	0.674	0.659	0.834	0.992
L fixed	1.53	0.938	1.51	0.8	1.13	1.28	0.973	0.963	0.994	1.06
M fixed	1.17	0.924	1.26	1.23	1.25	0.986	0.837	0.937	0.959	1.01
N fixed	0.59	1.03	0.65	0.843	0.667	1.07	1.08	1.1	1.01	1.14
P fixed	0.395	0.714	0.72	1.18	1	0.617	0.922	0.795	0.924	0.987
Q fixed	0.923	1.02	0.821	0.959	0.679	0.849	1.07	0.876	1.17	1.04
R fixed	0.555	0.837	0.669	1.18	1.28	0.506	0.825	0.824	0.952	1.03
S fixed	0.757	0.928	0.608	0.808	0.849	0.693	0.921	0.989	0.851	0.887
T fixed	0.943	0.874	0.68	0.844	0.944	0.811	0.966	0.948	0.761	0.883
V fixed	2	0.98	1.26	0.807	1.08	1.3	1.03	0.851	0.814	0.915
W fixed	1.59	2.12	2.14	2.11	1.14	0.748	0.91	1.08	1.1	0.991
pThr fixed	1.22	1.36	0.495	0.755	0.514	1.99	1.7	1.7	1.26	1.14
pTyr fixed	6.36	3.29	0.953	0.93	0.82	3.1	1.62	2.2	1.91	1.25

FER, construct: aa-541-end, human (from UniProt P16591)
relative phosphorylation
Details	at +1	at +2	at +3	at +4	at +5	at -1	at -2	at -3	at -4	at -5
A fixed	1.7	0.886	0.866	0.927	1.07	0.942	1	0.818	1.1	1.05
D fixed	1.32	0.911	0.521	0.838	0.592	1.12	1.15	1.29	1.31	1.22
E fixed	2.5	1.28	0.611	1.42	0.604	1.19	1.48	1.74	1.62	1.13
F fixed	0.517	1.27	1.41	1.11	1.29	1.45	0.696	0.988	1.05	0.972
G fixed	1.24	0.645	0.606	0.94	0.882	0.427	1.09	1.1	1.12	1.17
H fixed	0.647	0.83	1.93	1.12	0.933	1.52	1.1	1.07	0.885	0.982
I fixed	0.832	1.03	1.73	0.911	1.14	1.85	0.934	0.804	0.92	1.01
K fixed	0.31	0.646	0.36	0.941	0.58	0.357	0.735	0.617	0.798	0.831
L fixed	0.71	1.15	1.06	0.874	1.31	1.43	0.916	0.84	0.958	0.977
M fixed	0.969	0.973	1.12	1.29	1.08	1.06	0.76	1.01	0.93	1.06
N fixed	0.751	1.18	0.836	0.923	0.708	0.983	1.26	1.35	0.973	1.12
P fixed	0.323	0.867	0.89	0.873	2.09	1.05	1.05	0.971	1.08	1.02
Q fixed	1.48	0.878	0.658	1.11	0.846	0.73	1.18	0.859	1.14	1.05
R fixed	0.35	0.737	0.547	1.12	0.721	0.309	0.901	0.762	0.757	0.898
S fixed	1.42	0.917	0.82	0.766	0.999	0.619	1.1	1	0.794	0.849
T fixed	1.14	0.96	0.839	0.775	1.05	0.866	0.932	0.997	0.664	0.824
V fixed	1.13	0.929	1.34	0.922	1.19	1.29	0.897	0.788	0.825	0.807
W fixed	0.667	1.91	1.86	1.14	0.931	0.809	0.824	0.981	1.07	1.04
pThr fixed	1.55	1.12	0.721	0.549	0.543	1.14	1.18	1.26	1.2	1.09
pTyr fixed	2	1.26	1.01	0.849	0.471	3.56	1.58	1.81	1.63	1.13

FES, construct: Full length, human (from UniProt P07332)
relative phosphorylation
Details	at +1	at +2	at +3	at +4	at +5	at -1	at -2	at -3	at -4	at -5
A fixed	1.45	0.535	0.428	0.817	1.18	0.518	1.05	0.86	1.26	1
D fixed	0.789	0.715	0.235	0.622	0.47	0.77	1.01	1.52	1.16	0.941
E fixed	2.65	0.794	0.289	1	0.374	0.567	1.27	1.89	1.27	0.9
F fixed	0.872	1.58	1.32	1.07	1.71	1.3	0.851	1.44	1.13	1.14
G fixed	0.754	0.372	0.35	1.01	0.809	0.274	1.26	0.985	1.4	1.09
H fixed	0.471	0.425	0.752	0.957	1.24	0.718	0.917	0.826	0.74	0.979
I fixed	1.07	1.3	3.25	1.25	1.23	4.02	1.02	0.823	1.1	1.07
K fixed	0.208	0.294	0.21	0.592	0.394	0.273	0.62	0.44	0.615	0.766
L fixed	0.854	1.56	1.45	0.795	1.35	2.41	1.24	0.866	1.1	1.09
M fixed	1.82	1.36	2.19	1.68	1.52	1.05	0.917	1.18	1.19	1.24
N fixed	0.332	0.848	0.273	0.57	0.593	0.618	0.982	1.02	0.762	1.14
P fixed	0.332	0.643	0.361	0.845	1.44	0.599	1.21	0.917	1.01	0.883
Q fixed	0.95	0.552	0.373	0.858	0.669	0.412	1.1	0.702	1.13	1.18
R fixed	0.219	0.379	0.252	0.946	0.536	0.228	0.657	0.536	0.62	0.854
S fixed	1.29	0.819	0.482	0.923	0.78	0.432	0.953	0.924	0.733	0.777
T fixed	1.09	0.867	0.646	0.831	1.03	0.784	0.916	0.806	0.664	0.821
V fixed	1.88	1.26	2.52	1.1	1.27	2.19	1.08	0.942	0.984	1.05
W fixed	0.981	3.69	2.61	2.14	1.4	0.835	0.948	1.32	1.12	1.08
pThr fixed	3.64	1.35	0.346	0.649	0.307	1.53	1.21	1.65	0.946	0.879
pTyr fixed	3.48	1.27	0.712	1.14	0.357	9.09	2.21	2.25	1.83	1.55
